Values of other authors, collected in publication PMC8448686.

Assays:
CD20 (Homo sapiens) = CD20 (Homo sapiens) (UniProt P11836); assay: LigandTracer
HER2 (Homo sapiens) = HER2 (Homo sapiens) (UniProt P04626); assay: LigandTracer

Sequence of UniProt P11836 (P11836 whole entry): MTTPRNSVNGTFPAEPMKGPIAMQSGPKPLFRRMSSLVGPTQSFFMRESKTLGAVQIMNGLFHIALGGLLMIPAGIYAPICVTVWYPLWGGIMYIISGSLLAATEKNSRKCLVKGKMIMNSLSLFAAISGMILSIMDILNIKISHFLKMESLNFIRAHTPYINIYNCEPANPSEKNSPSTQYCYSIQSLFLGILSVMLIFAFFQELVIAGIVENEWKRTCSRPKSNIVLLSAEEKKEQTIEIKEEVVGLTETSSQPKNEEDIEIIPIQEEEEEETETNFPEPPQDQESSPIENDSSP

| Substance | Kd (CD20 (Homo sapiens)) [pM] | Kd (HER2 (Homo sapiens)) [pM] |
| --- | --- | --- |
| Rituximab | 930 | – |
| Pertuzumab | – | 130 |
